According to article PMC9482650, “Quantitative fragmentomics allow affinity mapping of interactomes” (Nature Communications, 2022):
Positions count from the first letter of the chain named.

T1: MPDZ_5, O75970
T1 sequence (O75970 695-796, limits assumed, looked up): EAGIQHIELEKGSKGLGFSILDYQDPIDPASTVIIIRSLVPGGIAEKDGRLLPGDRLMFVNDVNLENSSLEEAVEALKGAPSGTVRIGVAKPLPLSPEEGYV

T2: GRIP1_7, Q9Y3R0
T2 sequence (Q9Y3R0 999-1096, limits assumed, looked up): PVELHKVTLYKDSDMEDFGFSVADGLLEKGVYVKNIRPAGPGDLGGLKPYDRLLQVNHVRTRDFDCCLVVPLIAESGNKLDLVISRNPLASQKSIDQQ

T3: SNTG1, Q9NSN8
T3 sequence (Q9NSN8 52-150, limits assumed, looked up): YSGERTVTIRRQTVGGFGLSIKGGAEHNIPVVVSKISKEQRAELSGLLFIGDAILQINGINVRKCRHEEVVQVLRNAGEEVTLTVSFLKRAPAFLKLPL

T4: DFNB31_3, Q9P202
T4 sequence (Q9P202 811-907, limits assumed, looked up): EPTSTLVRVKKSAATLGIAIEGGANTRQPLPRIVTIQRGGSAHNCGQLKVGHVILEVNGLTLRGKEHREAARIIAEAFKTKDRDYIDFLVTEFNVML

T5: RAPGEF6, Q8TEU7
T5 sequence (Q8TEU7 525-625, limits assumed, looked up): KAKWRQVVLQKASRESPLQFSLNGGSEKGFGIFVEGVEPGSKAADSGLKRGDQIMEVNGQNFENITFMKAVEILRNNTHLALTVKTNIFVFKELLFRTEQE

T6: PTPN13_1, Q12923
T6 sequence (Q12923 1088-1188, limits assumed, looked up): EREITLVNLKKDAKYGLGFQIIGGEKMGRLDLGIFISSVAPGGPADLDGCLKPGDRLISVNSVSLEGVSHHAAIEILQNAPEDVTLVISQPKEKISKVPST

T7: SNTB1, Q13884
T7 sequence (Q13884 107-205, limits assumed, looked up): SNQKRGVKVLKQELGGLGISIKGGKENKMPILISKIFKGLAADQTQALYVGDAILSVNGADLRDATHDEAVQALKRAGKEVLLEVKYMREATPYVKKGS

T8: NHERF3_3, Q5T2W1
T8 sequence (Q5T2W1 238-333, limits assumed, looked up): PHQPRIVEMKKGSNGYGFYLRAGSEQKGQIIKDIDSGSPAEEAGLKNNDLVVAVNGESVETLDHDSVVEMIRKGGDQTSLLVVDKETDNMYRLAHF

T9: LIN7C, Q9NUP9
T9 sequence (Q9NUP9 88-185, limits assumed, looked up): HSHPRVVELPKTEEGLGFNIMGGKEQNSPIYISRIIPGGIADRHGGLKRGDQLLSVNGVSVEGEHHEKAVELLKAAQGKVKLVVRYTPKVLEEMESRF

T10: LIN7A, O14910
T10 sequence (O14910 103-200, limits assumed, looked up): T9 sequence (Q9NUP9 88-185, limits assumed, looked up) with E13D, I20V, I40V, D42E, Q77K, G78D, K79S, S96A

T11: PDZD2_2, O15018
T11 sequence (O15018 329-429, limits assumed, looked up): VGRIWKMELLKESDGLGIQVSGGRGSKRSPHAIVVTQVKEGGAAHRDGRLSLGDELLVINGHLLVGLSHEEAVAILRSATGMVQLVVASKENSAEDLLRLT

T12: GRIP1_4, Q9Y3R0
T12 sequence (Q9Y3R0 467-571, limits assumed, looked up): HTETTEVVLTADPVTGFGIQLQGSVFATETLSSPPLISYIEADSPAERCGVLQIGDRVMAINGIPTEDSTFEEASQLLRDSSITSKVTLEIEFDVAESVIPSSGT

T13: SYNJ2BP, P57105
T13 sequence (P57105 8-110, limits assumed, looked up): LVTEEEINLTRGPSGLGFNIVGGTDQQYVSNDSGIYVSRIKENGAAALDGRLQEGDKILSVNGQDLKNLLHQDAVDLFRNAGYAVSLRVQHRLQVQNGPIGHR


biological target: T1, MPDZ_5, O75970; assay: holdup assay; set-up: key: below the threshold = too weak to quantify, mostly under pKd 3.1 to 4; settings: plain residues with an end cap or a label only (N-terminal biotin on a linker: ado-ado)

Binder	pKd
RRLQGTSSMV [GOLT1A, Q6ZVE7]	below the threshold
TGPWKNETTV [ADGRA1, Q86SQ6]	below the threshold

biological target: Inadl_5, Q8NI35; assay: holdup assay; set-up: key: below the threshold = too weak to quantify, mostly under pKd 3.1 to 4; settings: plain residues with an end cap or a label only (N-terminal biotin on a linker: ado-ado)
Sequence (Q8NI35 673-780): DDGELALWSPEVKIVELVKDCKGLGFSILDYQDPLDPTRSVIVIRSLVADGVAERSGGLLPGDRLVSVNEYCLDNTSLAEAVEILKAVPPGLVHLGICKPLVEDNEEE

Binder	pKd
RRLQGTSSMV [GOLT1A, Q6ZVE7]	below the threshold
TGPWKNETTV [ADGRA1, Q86SQ6]	below the threshold

biological target: PICK1, Q9NRD5; assay: holdup assay; set-up: key: below the threshold = too weak to quantify, mostly under pKd 3.1 to 4; settings: plain residues with an end cap or a label only (N-terminal biotin on a linker: ado-ado)
Sequence (Q9NRD5 17-115): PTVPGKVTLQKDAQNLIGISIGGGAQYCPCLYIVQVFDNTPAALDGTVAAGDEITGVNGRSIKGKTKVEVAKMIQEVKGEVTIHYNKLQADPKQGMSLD

Binder	pKd
RRLQGTSSMV [GOLT1A, Q6ZVE7]	4.03
TGPWKNETTV [ADGRA1, Q86SQ6]	below the threshold

biological target: T2, GRIP1_7, Q9Y3R0; assay: holdup assay; set-up: key: below the threshold = too weak to quantify, mostly under pKd 3.1 to 4; settings: plain residues with an end cap or a label only (N-terminal biotin on a linker: ado-ado)

Binder	pKd
RRLQGTSSMV [GOLT1A, Q6ZVE7]	below the threshold
TGPWKNETTV [ADGRA1, Q86SQ6]	below the threshold

biological target: GRID2IP_1, A4D2P6; assay: holdup assay; set-up: key: below the threshold = too weak to quantify, mostly under pKd 3.1 to 4; settings: plain residues with an end cap or a label only (N-terminal biotin on a linker: ado-ado)
Sequence (A4D2P6 1-87): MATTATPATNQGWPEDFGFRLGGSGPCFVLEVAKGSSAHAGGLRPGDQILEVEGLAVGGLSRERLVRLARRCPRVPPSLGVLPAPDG

Binder	pKd
RRLQGTSSMV [GOLT1A, Q6ZVE7]	below the threshold
TGPWKNETTV [ADGRA1, Q86SQ6]	below the threshold

biological target: MAST2, Q6P0Q8; assay: holdup assay; set-up: key: below the threshold = too weak to quantify, mostly under pKd 3.1 to 4; settings: plain residues with an end cap or a label only (N-terminal biotin on a linker: ado-ado)
Sequence (Q6P0Q8 1099-1202): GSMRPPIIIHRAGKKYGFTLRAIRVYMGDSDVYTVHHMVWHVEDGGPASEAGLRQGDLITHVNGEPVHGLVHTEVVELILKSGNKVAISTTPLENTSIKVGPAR

Binder	pKd
RRLQGTSSMV [GOLT1A, Q6ZVE7]	4.72
TGPWKNETTV [ADGRA1, Q86SQ6]	5.31

biological target: T3, SNTG1, Q9NSN8; assay: holdup assay; set-up: key: below the threshold = too weak to quantify, mostly under pKd 3.1 to 4; settings: plain residues with an end cap or a label only (N-terminal biotin on a linker: ado-ado)

Binder	pKd
RRLQGTSSMV [GOLT1A, Q6ZVE7]	3.7
TGPWKNETTV [ADGRA1, Q86SQ6]	4.19

biological target: T4, DFNB31_3, Q9P202; assay: holdup assay; set-up: key: below the threshold = too weak to quantify, mostly under pKd 3.1 to 4; settings: plain residues with an end cap or a label only (N-terminal biotin on a linker: ado-ado)

Binder	pKd
RRLQGTSSMV [GOLT1A, Q6ZVE7]	3.66
TGPWKNETTV [ADGRA1, Q86SQ6]	below the threshold

biological target: T5, RAPGEF6, Q8TEU7; assay: holdup assay; set-up: key: below the threshold = too weak to quantify, mostly under pKd 3.1 to 4; settings: plain residues with an end cap or a label only (N-terminal biotin on a linker: ado-ado)

Binder	pKd
RRLQGTSSMV [GOLT1A, Q6ZVE7]	below the threshold
TGPWKNETTV [ADGRA1, Q86SQ6]	below the threshold

biological target: FRMPD3, Q5JV73; assay: holdup assay; set-up: key: below the threshold = too weak to quantify, mostly under pKd 3.1 to 4; settings: plain residues with an end cap or a label only (N-terminal biotin on a linker: ado-ado)
Sequence (Q5JV73 12-100): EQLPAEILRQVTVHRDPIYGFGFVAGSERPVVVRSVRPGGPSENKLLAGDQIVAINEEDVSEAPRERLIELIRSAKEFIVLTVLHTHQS

Binder	pKd
RRLQGTSSMV [GOLT1A, Q6ZVE7]	below the threshold
TGPWKNETTV [ADGRA1, Q86SQ6]	below the threshold

biological target: T6, PTPN13_1, Q12923; assay: holdup assay; set-up: key: below the threshold = too weak to quantify, mostly under pKd 3.1 to 4; settings: plain residues with an end cap or a label only (N-terminal biotin on a linker: ado-ado)

Binder	pKd
RRLQGTSSMV [GOLT1A, Q6ZVE7]	below the threshold
TGPWKNETTV [ADGRA1, Q86SQ6]	below the threshold

biological target: LNX1_3, Q8TBB1; assay: holdup assay; set-up: key: below the threshold = too weak to quantify, mostly under pKd 3.1 to 4; settings: plain residues with an end cap or a label only (N-terminal biotin on a linker: ado-ado)
Sequence (Q8TBB1 500-596): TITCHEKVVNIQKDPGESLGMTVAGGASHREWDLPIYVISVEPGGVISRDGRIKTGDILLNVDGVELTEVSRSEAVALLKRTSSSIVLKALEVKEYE

Binder	pKd
RRLQGTSSMV [GOLT1A, Q6ZVE7]	below the threshold
TGPWKNETTV [ADGRA1, Q86SQ6]	below the threshold

biological target: TJP1_3, Q07157; assay: holdup assay; set-up: key: below the threshold = too weak to quantify, mostly under pKd 3.1 to 4; settings: plain residues with an end cap or a label only (N-terminal biotin on a linker: ado-ado)
Sequence (Q07157 416-512): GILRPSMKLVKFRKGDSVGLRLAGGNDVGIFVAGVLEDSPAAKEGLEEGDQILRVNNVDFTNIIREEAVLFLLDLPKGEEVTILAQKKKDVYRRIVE

Binder	pKd
RRLQGTSSMV [GOLT1A, Q6ZVE7]	below the threshold
TGPWKNETTV [ADGRA1, Q86SQ6]	below the threshold

biological target: AHNAK1, Q09666; assay: holdup assay; set-up: key: below the threshold = too weak to quantify, mostly under pKd 3.1 to 4; settings: plain residues with an end cap or a label only (N-terminal biotin on a linker: ado-ado)
Sequence (Q09666 4-100): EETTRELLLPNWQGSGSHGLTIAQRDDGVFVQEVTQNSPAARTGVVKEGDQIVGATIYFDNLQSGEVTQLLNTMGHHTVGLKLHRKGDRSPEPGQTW

Binder	pKd
RRLQGTSSMV [GOLT1A, Q6ZVE7]	below the threshold
TGPWKNETTV [ADGRA1, Q86SQ6]	below the threshold

biological target: T7, SNTB1, Q13884; assay: holdup assay; set-up: key: below the threshold = too weak to quantify, mostly under pKd 3.1 to 4; settings: plain residues with an end cap or a label only (N-terminal biotin on a linker: ado-ado)

Binder	pKd
RRLQGTSSMV [GOLT1A, Q6ZVE7]	below the threshold
TGPWKNETTV [ADGRA1, Q86SQ6]	4.67

biological target: T8, NHERF3_3, Q5T2W1; assay: holdup assay; set-up: key: below the threshold = too weak to quantify, mostly under pKd 3.1 to 4; settings: plain residues with an end cap or a label only (N-terminal biotin on a linker: ado-ado)

Binder	pKd
RRLQGTSSMV [GOLT1A, Q6ZVE7]	below the threshold
TGPWKNETTV [ADGRA1, Q86SQ6]	below the threshold

biological target: MAGI2_5, Q86UL8; assay: holdup assay; set-up: key: below the threshold = too weak to quantify, mostly under pKd 3.1 to 4; settings: plain residues with an end cap or a label only (N-terminal biotin on a linker: ado-ado)
Sequence (Q86UL8 915-1017): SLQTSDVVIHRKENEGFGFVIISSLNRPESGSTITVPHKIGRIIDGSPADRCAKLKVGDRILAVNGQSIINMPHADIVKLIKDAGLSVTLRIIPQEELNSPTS

Binder	pKd
RRLQGTSSMV [GOLT1A, Q6ZVE7]	4
TGPWKNETTV [ADGRA1, Q86SQ6]	4.02

biological target: T9, LIN7C, Q9NUP9; assay: holdup assay; set-up: key: below the threshold = too weak to quantify, mostly under pKd 3.1 to 4; settings: plain residues with an end cap or a label only (N-terminal biotin on a linker: ado-ado)

Binder	pKd
RRLQGTSSMV [GOLT1A, Q6ZVE7]	below the threshold
TGPWKNETTV [ADGRA1, Q86SQ6]	4.27

biological target: T10, LIN7A, O14910; assay: holdup assay; set-up: key: below the threshold = too weak to quantify, mostly under pKd 3.1 to 4; settings: plain residues with an end cap or a label only (N-terminal biotin on a linker: ado-ado)

Binder	pKd
RRLQGTSSMV [GOLT1A, Q6ZVE7]	below the threshold
TGPWKNETTV [ADGRA1, Q86SQ6]	3.86

biological target: T11, PDZD2_2, O15018; assay: holdup assay; set-up: key: below the threshold = too weak to quantify, mostly under pKd 3.1 to 4; settings: plain residues with an end cap or a label only (N-terminal biotin on a linker: ado-ado)

Binder	pKd
RRLQGTSSMV [GOLT1A, Q6ZVE7]	5.16
TGPWKNETTV [ADGRA1, Q86SQ6]	4.02

biological target: FRMPD2_2, Q68DX3; assay: holdup assay; set-up: key: below the threshold = too weak to quantify, mostly under pKd 3.1 to 4; settings: plain residues with an end cap or a label only (N-terminal biotin on a linker: ado-ado)
Sequence (Q68DX3 944-1038): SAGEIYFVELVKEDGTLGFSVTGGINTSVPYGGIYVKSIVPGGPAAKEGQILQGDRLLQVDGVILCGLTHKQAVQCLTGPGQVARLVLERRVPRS

Binder	pKd
RRLQGTSSMV [GOLT1A, Q6ZVE7]	below the threshold
TGPWKNETTV [ADGRA1, Q86SQ6]	3.57

biological target: T12, GRIP1_4, Q9Y3R0; assay: holdup assay; set-up: key: below the threshold = too weak to quantify, mostly under pKd 3.1 to 4; settings: plain residues with an end cap or a label only (N-terminal biotin on a linker: ado-ado)

Binder	pKd
RRLQGTSSMV [GOLT1A, Q6ZVE7]	below the threshold
TGPWKNETTV [ADGRA1, Q86SQ6]	below the threshold

biological target: T13, SYNJ2BP, P57105; assay: holdup assay; set-up: key: below the threshold = too weak to quantify, mostly under pKd 3.1 to 4; settings: plain residues with an end cap or a label only (N-terminal biotin on a linker: ado-ado)

Binder	pKd
RRLQGTSSMV [GOLT1A, Q6ZVE7]	4.72
TGPWKNETTV [ADGRA1, Q86SQ6]	5.13

biological target: GORASP2, Q9H8Y8; assay: holdup assay; set-up: key: below the threshold = too weak to quantify, mostly under pKd 3.1 to 4; settings: plain residues with an end cap or a label only (N-terminal biotin on a linker: ado-ado)

Binder	pKd
RRLQGTSSMV [GOLT1A, Q6ZVE7]	4.17
TGPWKNETTV [ADGRA1, Q86SQ6]	3.57
